One block for each binder: values may come before it.
How the values were obtained:
[1] = molecular target: T1, HB-EGF (human, UniProt Q99075)
T1 chain: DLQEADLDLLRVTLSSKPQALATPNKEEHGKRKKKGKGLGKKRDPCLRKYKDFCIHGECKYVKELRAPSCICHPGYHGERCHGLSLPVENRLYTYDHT

[2] = molecular target: EGF (human, UniProt P01133)
EGF, sequence (P01133 971-1023): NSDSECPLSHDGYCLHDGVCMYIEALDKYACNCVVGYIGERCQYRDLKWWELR

binding result [1]: no binding
binding result [2]: no binding
B1: PAR80 (antibody, V domains shown)
VH: EVQLQQSGAELVRSGASVKLSCTASGFNIKDYYIHWVKQRPEQGLEWIGCIDPENGDTEYAPNFQGRATMTADTSSNTAYLQLSSLTSEDTAVYYCYGGTITFAYWGQGTLVTVSA
VL: QAVVTQESALTTSPGETVTLTCRSSTGAVTTSNSANWVQEKPDHLFTGLIGGTINRVPGVPARFSGSLIGDKAALTITGAQTEDEAIYFCALWYSNHWVFGGGTKLTVLG

binding result [1]: no binding
binding result [2]: no binding
B2: PAR34 (antibody, V domains shown)
VH: EIQLQQSGPELVKPGASVKVSCKASGYAFTNYNMYWVKQSHGKSLEWIGYIDPYYGDPGYSQKFKGKATLTVDKSSSTAYMHLNSLTSEDSAVYYCARRGNFPYYFDYWGQGTTLTVSS
VL: DIKMTQSPSSMYASLGERVTITCKASQDINSYLSWFQQKPGKSPKTLIYRANRLVDGVPSRFSGSGSGQDYSLTISSLEYEDMGIYYCLQYDEFPYTFGGGTKLEIK

— patent US20080226632 (published 2008)
